According to patent US20260224670:

T1: EB2 of mouse neurons and mouse brain, Q8R001
T1 chain: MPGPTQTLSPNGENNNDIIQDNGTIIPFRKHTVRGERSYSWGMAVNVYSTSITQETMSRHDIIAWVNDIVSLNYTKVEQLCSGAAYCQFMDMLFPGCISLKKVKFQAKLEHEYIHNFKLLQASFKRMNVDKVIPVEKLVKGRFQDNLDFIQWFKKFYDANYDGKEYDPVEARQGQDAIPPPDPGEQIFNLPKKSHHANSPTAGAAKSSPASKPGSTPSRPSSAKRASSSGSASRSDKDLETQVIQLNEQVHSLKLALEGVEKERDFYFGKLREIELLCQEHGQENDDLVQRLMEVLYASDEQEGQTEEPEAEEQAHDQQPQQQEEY


Biological target: T1, EB2 of mouse neurons and mouse brain, …

Protein | phospho-Ser222 EB2 in transfected CDKL5 KO primary cortical neurons | other results
hICK, 3xFLAG-TwinStrep tagged (protein) MNRYTTIRQLGDGTYGSVLLGRSIESGELIAIKKMKRKFYSWEECMNLREVKSLKKLNHANVVKLKEVIRENDHLYFIFEYMKENLYQLIKERNKLFPESAIRNIMYQILQGLAFIHKHGFFHRDLKPENLLCMGPELVKIADFGLAREIRSKPPYTDYVSTRWYRAPEVLLRSTNYSSPIDVWAVGCIMAEVYTLRPLFPGASEIDTIFKICQVLGTPKKTDWPEGYQLSSAMNFRWPQCVPNNLKTLIPNASSEAVQLLRDMLQWDPKKRPTASQALRYPYFQVGHPLGSTTQNLQDSEKPQKGILEKAGPPPYIKPVPPAQPPAKPHTRISSRQHQASQPPLHLTYPYKAEVSRTDHPSHLQEDKPSPLLFPSLHNKHPQSKITAGLEHKNGEIKPKSRRRWGLISRSTKDSDDWADLDDLDFSPSLSRIDLKNKKRQSDDTLCRFESVLDLKPSEPVGTGNSAPTQTSYQRRDTPTLRSAAKQHYLKHSRYLPGISIRNGILSNPGKEFIPPNPWSSSGLSGKSSGTMSVISKVNSVGSSSTSSSGLTGNYVPSFLKKEIGSAMQRVHLAPIPDPSPGYSSLKAMRPHPGRPFFHTQPRSTPGLIPRPPAAQPVHGRTDWASKYASRR | pS222 EB2 is specifically increased in the neurons that express these kinases | 
CDKL5 (recombinantly expressed) (protein) MKIPNIGNVMNKFEILGVVGEGAYGVVLKCRHKETHEIVAIKKFKDSEENEEVKETTLRELKMLRTLKQENIVELKEAFRRRGKLYLVFEYVEKNMLELLEEMPNGVPPEKVKSYIYQLIKAIHWCHKNDIVHRDIKPENLLISHNDVLKLCDFGFARNLSEGNNANYTEYVATRWYRSPELLLGAPYGKSVDMWSVGCILGELSDGQPLFPGESEIDQLFTIQKVLGPLPSEQMKLFYSNPRFHGLRFPAVNHPQSLERRYLGILNSVLLDLMKNLLKLDPADRYLTEQCLNHPTFQTQRLLDRSPSRSAKRKPYHVESSTLSNRNQAGKSTALQSHHRSNSKDIQNLSVGLPRADEGLPANESFLNGNLAGASLSPLHTKTYQASSQPGSTSKDLTNNNIPHLLSPKEAKSKTEFDFNIDPKPSEGPGTKYLKSNSRSQQNRHSFMESSQSKAGTLQPNEKQSRHSYIDTIPQSSRSPSYRTKAKSHGALSDSKSVSNLSEARAQIAEPSTSRYFPSSCLDLNSPTSPTPTRHSDTRTLLSPSGRNNRNEGTLDSRRTTTRHSKTMEELKLPEHMDSSHSHSLSAPHESFSYGLGYTSPFSSQQRPHRHSMYVTRDKVRAKGLDGSLSIGQGMAARANSLQLLSPQPGEQLPPEMTVARSSVKETSREGTSSFHTRQKSEGGVYHDPHSDDGTAPKENRHLYNDPVPRRVGSFYRVPSPRPDNSFHENNVSTRVSSLPSESSSGTNHSKRQPAFDPWKSPENISHSEQLKEKEKQGFFRSMKKKKKKSQTVPNSDSPDLLTLQKSIHSASTPSSRPKEWRPEKISDLQTQSQPLKSLRKLLHLSSASNHPASSDPRFQPLTAQQTKNSFSEIRIHPLSQASGGSSNIRQEPAPKGRPALQLPGQMDPGWHVSSVTRSATEGPSYSEQLGAKSGPNGHPYNRTNRSRMPNLNDLKETAL | pS222 EB2 is specifically increased in the neurons that express these kinases | 
hCDKL2 (cyclin dependent kinase like 2), 3xFLAG-TwinStrep tagged (protein) MEKYENLGLVGEGSYGMVMKCRNKDTGRIVAIKKFLESDDDKMVKKIAMREIKLLKQLRHENLVNLLEVCKKKKRWYLVFEFVDHTILDDLELFPNGLDYQVVQKYLFQIINGIGFCHSHNIIHRDIKPENILVSQSGVVKLCDFGFARTLAAPGEVYTDYVATRWYRAPELLVGDVKYGKAVDVWAIGCLVTEMFMGEPLFPGDSDIDQLYHIMMCLGNLIPRHQELFNKNPVFAGVRLPEIKEREPLERRYPKLSEVVIDLAKKCLHIDPDKRPFCAELLHHDFFQMDGFAERFSQELQLKVQKDARNVSLSKKSQNRKKEKEKDDSLVEERKTLVVQDTNADPKIKDYKLFKIKGSKIDGEKAEKGNRASNASCLHDSRTSHNKIVPSTSLKDCSNVSVDHTRNPSVAIPPLTHNLSAVAPSINSGMGTETIPIQGYRVDEKTKKCSIPFVKPNRHSPSGIYNINVTTLVSGPPLSDDSGADLPQMEHQH | pS222 EB2 is specifically increased in the neurons that express these kinases | 
mouse CDKL2 (endogenous) (protein) MEKYENLGLVGEGSYGMVMKCRNKDSGRIVAIKKFLESDDDKMVKKIAMREIKLLKQLRHENLVNLLEVCKKKKRWYLVFEFVDHTILDDLKLFPNGLDYQVVQKYLFQIINGIGFCHSHNIIHRDIKPENILVSQSGVVKLCDFGFARTLAAPGEVYTDYVATRWYRAPELLVGDVKYGKAVDIWAIGCLVIEMLMGQPLFPGESDIDQLHHIMTCLGNLIPRHQELFYKNPVFAGVRLPEVKDAEAEPLESRYPKLPEAVISLAKKCLHIDPDKRPFCADLLRHDFFQMDGFAERFSQELQLKIEKDARNNSLPKKSQNRKKEKDDALGEERKTLVVQDTNADPKIKDSKVFKVKGSKIDVEKMEKGSRASNANCLHDNGTNHKGLASTSLRDCSNVNIDHSRNPGTAIPPLTHNLSAVAPGINAGMGTIPGVQNYRVDEKTKKYCNPFVKPNQPPPAGIYNMNVSTSVSGEKYLLQANKKRKEYPKADVRLPELNYNHLPELRALEGIARNSRLIKKENKCLSESRIPSLAAIDLHVSSVASHQGAGSPLSDDSEADLPRMEHQH |  | okadaic acid dependent increase of pEB2/EB2 in CDKL5 KO primary neurons after CDKL2 shRNA knockdown: Both shRNAs caused a reduction of the OA dependent increase of pEB2/EB2
mouse CDKL5 (endogenous) (protein) MKIPNIGNVMNKFEILGVVGEGAYGVVLKCRHKETHEIVAIKKFKDSEENEEVKETTLRELKMLRTLKQENIVELKEAFRRRGKLYLVFEYVEKNMLELLEEMPNGVPPEKVKSYIYQLIKAIHWCHKNDIVHRDIKPENLLISHNDVLKLCDFGFARNLSEGNNANYTEYVATRWYRSPELLLGAPYGKSVDMWSVGCILGELSDGQPLFPGESEIDQLFTIQKVLGPLPSEQMKLFYSNPRFHGLRFPAVNHPQSLERRYLGILNSVLLDLMKNLLKLDPADRYLTEQCLNHPTFQTQRLLDRSPSRSTKRKPYHVESSTLSNRNQSTKGAALQTHHRSNSKDIQNLSVGLPRAEEGLPANESFLNGNLAGATLSPMHTKTYQASTQPGSSSKDLTNNNIPHLLSPKEAKSKTEFDFNIDTKPSEGPGTKYLKSSTRSQQNRHSFMESSQSKAGTLQPSEKQSRHSYIDTIPQSSRSPSYRTKAKSHGALSDSKSVSNLSEARAQITETNTSRYFPSSCLDLNSPTSPTPTRHTDTRTLLSPSGRNNRNEGTLDSRRTTTRHSKTMEELKLPEHMDSSHSHSLSAPHESFSYGLGYTSPFSSQQRPHRHSMYVTRDKVRAKGLDGSLSIGQGMAARANSLQLLSPQPGEQLPPEMTVARPSVKESSREGASSFHTRQKSEGGVYHDPHSDDGTAPKENRHLYNDPVPRRVGSFYRVPSPRPDNSFHENNVSTRVSSLPSDSSSGTNHSKRQPGFDPWKSPENISHADQLKEKEKQGFFRSMKKKKKKTQTVPNTDGPDLLTLQKAIHSSSTASSRPKEWRPEKLSDLQTQSQPLKSLRKLLHLSSSTNHPASSDPRFQPLTAQQAKNSFSEIRIHPLSQATGGSSNIRQEPTPKGRPALQLPGSSLLRYNGWKHSRSRSSQPDEVIFLASHEKWKQ |  | pS222 EB2 in primary cortical cultures of CDKL5 KO against wild type littermates: pS222 EB2 is much lower in CDKL5 KOs
